Measurements as given in patent publication US20040253623.

Assays:
[1] = tested on: F2-Arg finger 3 Asp2Ala D2A in finger 3 (helix position 2) (Artificial Sequence); conditions: phage ELISA; PBS, 50 uM ZnCl2, 20 C
[2] = tested on: Zif268 finger 3 Asp2Ala D2A in finger 3 (helix position 2); conditions: phage ELISA; PBS, 50 uM ZnCl2, 20 C

| Sequence | binding signal (fold lower affinity than parent F2-Arg) [1] | binding signal (fold lower affinity than wild type) [2] |
| --- | --- | --- |
| GCGGTGGCG (double strand) [F2-Arg consensus site] | 4 |  |
| GCGTGGGCG (double strand) [Zif268 consensus site] |  | 4 |
